Test [1] concerns the target BMP-9 receptors expressed on HepG2 cells (ATCC HB8065). Description: Scatchard analysis; 2 ng/ml 125I-BMP-9 displaced by unlabelled BMP-9 on HepG2 cells, 20 hours at 4 C.
The target is the same in test [2]. Description: 125I-BMP-9 binding to HepG2 cells.
For test [3] the target is unchanged. Briefly: 125I-BMP-9 binding to HepG2 cells; the Kd told again in ng/ml.
For test [4] the target is unchanged. Description: Scatchard analysis of 125I-BMP-9 binding to HepG2 cells.
For test [5] the target is unchanged.

One molecule from patent publication US6034061 can be followed below.

B1: recombinant human BMP-9, CHO-derived (mature region of human BMP-9 expressed from the murine/human BMP-9 fusion plasmid) (ligand)
chain: TRECSRSCPRTAPQRQVRAVTRRTRMAHVAAGSTLARRKRSAGAGSHCQKTSLRVNFEDIGWDSWIIAPKEYEAYECKGGCFFPLADDVTPTKHAIVQTLVHLKFPTKVG
modifications: iodinated (125I) where used as the tracer; unlabelled where used as the competitor or in the proliferation assay
The term Kd denotes the equilibrium constant for the complex coming apart. Higher therefore signals a looser complex. Take B1: the Kd in test [1] stood at 0.3 nM; in test [2] it was 0.27 nM; in test [3] it was 8 ng/mL. The high affinity receptors per cell (receptors per cell) in test [4] amounted to 10000. The molecule also came in with a 3H-thymidine incorporation in HepG2 cells in test [5] of 5 fold. The molecule also came in with an ED50 of 3H-thymidine incorporation in HepG2 cells in test [5] of 10 ng/mL.
